Measured values: patent US20240409645A1 (DUALYX, published 2024)

T1: human IL-2Rβ (human, UniProt P14784 27-240, limits assumed)
T1 construct: Recombinant protein, coated (ELISA) or immobilised on CM5 (SPR); also called hu IL-2R; interleukin 2 receptor β-chain
T1 sequence: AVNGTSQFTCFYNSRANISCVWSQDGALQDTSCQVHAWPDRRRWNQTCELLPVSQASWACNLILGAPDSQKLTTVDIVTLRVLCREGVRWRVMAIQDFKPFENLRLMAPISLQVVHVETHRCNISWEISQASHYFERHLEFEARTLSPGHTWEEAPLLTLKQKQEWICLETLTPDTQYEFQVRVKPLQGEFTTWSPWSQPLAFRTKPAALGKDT


Experiments:
[1] = biological target: T1, human IL-2Rβ; test: P.E. binding ELISA on coated protein
Method: In a binding ELISA, human or mouse IL-2Rα, IL-2Rβ and IL-2Rγ proteins were coated directly on maxisorp microtiter plates overnight at 4° C. Free binding sites were blocked using 4% Marvel in PBS for 1 hour. Next, 1:5 dilution of P.E. in 1% Marvel/PBS were added to wells and incubated for 1 hour. […] Binding specificity was determined based on O.D. at 450 nm values compared to negative controls.

[2] = biological target: T1, human IL-2Rβ; test: SPR (Biacore), P.E. off-rate ranking

Row | Binder | P.E. binding ELISA OD [1] [OD450 nm] | koff [2] [s⁻¹]
1 | FJ1427_P035MP02C12 (VHH, soluble VHH in periplasmic extract; also called clone nr) VHH: EVQLVESGGGSVQAGGSLRLSCAASGRTFSDYTMGWFRQAPGKEREFVVAITGTGHTTDMPDSVEGRFTISRDNAKNTIYLDMKNLKPGDTAVYYCASARGLPVTPLGDIIYWGEGTLVTVSS | 0.616 | 0.00106
2 | FJ1427 P035MP02F12 (VHH, soluble VHH in periplasmic extract; also called clone nr; 190) VHH: QLQLVESGGGLVQTGTSLRLSCAASGHTSRINAMGWFRQFPGKEREFVAAISRNGGSTVYVDSVKGRFTISRDNAKSTVYLQMNSLKPEDTAVYYCTATDAVGWTTRWMTADFGFWGQGTQVTVSS | 0.628 | 0.00294
3 | FJ1427 P035MP03C02 (VHH, soluble VHH in periplasmic extract; also called clone nr) VHH: QVQLVESGGGLVQVGDSLRLSCAASGRTVGSANMGWFRQAPGKEREFVAVITWSTGSTVYADSVKGRFTISRDNAKNTVYLDMSSLKPEDTAVYYCAADVYPYSGNLNIMDYWGKGTLVTVSS | 0.828 | 0.00159
4 | FJ1427_P035MP03D03 (VHH, soluble VHH in periplasmic extract; also called clone nr) VHH: QVQLVESGGGLVQVGDSLRLSCAASGRTVGSANMGWFRQAPGKEREFVAVITWSTGSTVYADSVKGRFTISRDNAKNTVYLDLSSLKPEDTAVYYCAADVYPYSGNLNIMDYWGKGTQVTVSS | 0.265 | 0.000538
5 | FJ1427_P035MP03B02 (VHH, soluble VHH in periplasmic extract; also called clone nr) VHH: EVQLVESGGGLVQVGDSLRLSCAASGRTVGSANMGWFRQAPGKEREFVAVITWSTGSTVYADSVKGRFTISRDNAKNTVYLDMSSLKPDDTAVYYCAADVYPYSGNLNIMDYWGKGTLVTVSS | 0.529 | 0.00241
6 | FJ1427_P035MP03F01 (VHH, soluble VHH in periplasmic extract; also called clone nr) VHH: QVQLVESGGGLVQVGGSLRVSCAASGRTSGDRNMGWFRQAPGKEREFVGIITWSSGSTVYADSVKGRFTISRDNAKNTVYLDMSSLKPEDTAVYYCAADYYPYSGSWNIMDYWGKGTLVTVSS | 0.221 | 0.00447
7 | FJ1427 P035MP03D01 (VHH, soluble VHH in periplasmic extract; also called clone nr) VHH: QVQLVESGGGLVQPGGSLGLSCAASGFTFDNYAMSWVRQAPGKGLEWVSSITGAGRGTHYADSVKGRFTISRDNAKNTLYLQMNSLKPEDTAVYYCAKYSSSTYYPPTPARGTDYRGPGTQVTVSS | 0.307 | 0.00127
8 | FJ1427 P035MP03D04 (VHH, soluble VHH in periplasmic extract; also called clone nr; 220) VHH: QVQLVESGGGLVQPGGSLRLSCAASGFTFSNYAMSWVRQAPGKELEWVSSITSAGRGTHYADTVKGRFTISRDNDENTLYLQMNSLEPEDTAVYYCAKYSSATYYPPTPAQGRDYRGQGTQVTVSS | 0.447 | 0.0016
9 | FJ1427 P035MP03B01 (VHH, soluble VHH in periplasmic extract; also called clone nr) VHH: QVQLVESGGGLVQAGGSLRLSCAASGFTFSNYAMSWVRQAPGKGLEWVSSITGFGRGTDYADSVKGRFTISRDNAKNTLYLQMNSLKPEDTAVYYCARYSSSTYYPPTPARGTDYRGQGTQVTVSS | 0.203 | 0.0011
10 | FJ1427_P035MP03E06 (VHH, soluble VHH in periplasmic extract; also called clone nr) VHH: QVQLVESGGGLVQAGRSLGLSCAASGFTFDNYAMSWVRQAPGKGLEWVSSITGAGRGTHYADSVKGRFTISRDNAKNTLYLQMNSLKPEDTAVYYCAKYSSSTYYPPTPARGTDYRGPGTQVTVSS | 0.299 | 0.00116
11 | FJ1427_P035MP03F02 (VHH, soluble VHH in periplasmic extract; also called clone nr) VHH: QVQLVESGGGLVQPGGSLRLSCAASGFTFSNYAMSWVRQAPGKGLEWVSSITGAGRGTYYADSVKGRFTISRDNDKNTLYLQMNSLKPEDTAVYYCAKYDSSTYYPPTPARGIADRGQGIQVTVSS | 0.113 | 0.00191
12 | FJ1427_P035MP03H01 (VHH, soluble VHH in periplasmic extract; also called clone nr; 200) VHH: QVQLVESGGGSVQTGGSLRLSCVVSGSHFISDVMGWYRQVPGKQRELVADMADGGSAKYADSVKGRFTILRDSVKNTVTLQMSSLNPEDTGVYYCKAGLWITGRHSDYWGQGTQVTVTS | 0.327 | 0.000365
13 | FJ1427 P035MP03A03 (VHH, soluble VHH in periplasmic extract; also called clone nr) VHH: EVQLVESGGGSVQTGGSLRLSCVVSGSHFISDVMGWYRQVPGKQRELVADMADGGSVKYGDSVKGRFTILRDSVKNTVTLQMSSLNPEDTGVYYCKAGLWITGRHFDYWGQGTQVTVTS | 0.296 | 0.000248
14 | FJ1427_P035MP03H04 (VHH, soluble VHH in periplasmic extract; also called clone nr) VHH: QVQLVESGGGLVQAGGSLALSCAASGGTFSSYAMGWFRQAPGKEREFVAATTRGGGRTMYAVSTEGRFSCSRDNAKNTVYLLIKNLKPEDTAVYYCAARTSYYDGTYYPASSDFDIWGQGTQVTVSS | 0.262 | 0.000431
15 | FJ1427 P035MP03C04 (VHH, soluble VHH in periplasmic extract; also called clone nr) VHH: EVQLVESGGGLVQAGASLELSCAASGGTFSSYAMGWFRQAPGKEREFVAATTRGGGRTMYAVSTEGRFSCSRDNAKNTVNLLIKNLKPEDTAVYYCAARTSYYDGTYYPASSDFDIWGQGTQVTVSS | 0.395 | 0.000307
16 | FJ1427_P035MP03A02 (VHH, soluble VHH in periplasmic extract; also called clone nr) VHH: QVQLVESGGGLVQAGGSLRLSCAASGGTFSSYAMGWFRQAPGKEREFVAATTRGGGRTMYAVSTEGRFTCSRDNAENTVYLQMNSLKPEDTAIYYCAAMTSYYSGTYYPDSSDFDIWGQGTQVTVSS | 0.28 | 0.00104
17 | FJ1427 P035MP03H05 (VHH, soluble VHH in periplasmic extract; also called clone nr) VHH: QLQLVESGGGLVQAGGSLALSCAASGGTFSSYAMGWFRQAPGKEREFVAATTRGGGRTMYAVSTEGRFSCSRDNAKNTVYLLIKNLKPEDTAVYYCAARTSYYDGTYYPASSDFDIWGQGTQVTVSS | 0.316 | 0.000772
18 | FJ1427_P035MP03G01 (VHH, soluble VHH in periplasmic extract; also called clone nr) VHH: EVQLVESGGGLVQAGGSLRLSCAASGGTFSSYAMGWFRQAPGKEREFVAATTRGGGRTMYAVSTEGRFTCSRDNAKNTVYLLMNRVKPEDTAVYYCAARTSYYSGTYYPASSDFDIWGQGTQVTVSS | 0.192 | 0.00058
19 | FJ1427 P035MP03E01 (VHH, soluble VHH in periplasmic extract; also called clone nr) VHH: QVQLVESGGGLVQAGGSLRLSCAASGGTFSSYAMGWFRQAPGKEREFVAATTRGGGRTMYAVSTEGRFTCSRDNAKNTVYLLMNSLKPEDTAVYYCAAMTSYYSGTYYPDSSDFDIWGQGTQVTVSS | 0.329 | 0.000323
20 | FJ1427_P035MP02D12 (VHH, soluble VHH in periplasmic extract; also called clone nr) VHH: QVQLVESGGGLVQAGGSLTLSCAASGGAFSSDAKAWFRQAPGKEREFVAAITWAGRGTDYADSVKGRFTITRDNAKATVHLQMNSLKPEDTAVYYCALNPRGVIGPAFRNSNHYTYWGQGTQVTVSS | 0.658 | 0.00144
21 | FJ1427_P035MP02F11 (VHH, soluble VHH in periplasmic extract; also called clone nr) VHH: EVQLVESGGGLVQAGGSLRLSCAASGRDFSSYAMGWFRQAPGKEREFVVAITWTKRSTDFPDSVKGRFTISRDNAKNTVYLDMNSLKPEDTAVYYCASARGLPVTPLGDIIYWGEGTLVTVSS | 0.33 | 0.000686
22 | FJ1427_P035MP02G11 (VHH, soluble VHH in periplasmic extract; also called clone nr) VHH: QLQLVESGGGLVQAGGSLRLSCAASGRDFSSYAMGWFRQAPGKEREFVVAITWTKRSTDFPDSVKGRFTISRDNAKNTVYLDMNSLKPEDTAVYYCASARGLPVTPLGDIIYWGEGTLVTVSS | 0.429 | 0.000708
23 | FJ1427 P035MP03F07 (VHH, soluble VHH in periplasmic extract; also called clone nr) VHH: QVQLVESGGGLVQAGGSLRLSCAASGRTFSSYVMGWFRQAPGKEREFVVAITGTRRTTDWPDSVKGRFTISRDNAQNTVYLDMNSLKPEDTAVYYCASARGLPVPPLGDIIHWGEGTLVTVSS | 0.156 | 0.00126
24 | FJ1427_P035MP02E12 (VHH, soluble VHH in periplasmic extract; also called clone nr) VHH: QVQLQESGGGLVQAGGSMRLSCAASGRTFSNYVIAWFRQAPGKEREFVGAITQTGRGTFYASSVEGRFTLSRLNDQSTVYLQMNSLNPEDTGVYYCSAPRSGRAGTRNQMDYEYWGQGTQVTVSS | 0.108 | 0.0115
25 | FJ1427 P035MP02B12 (VHH, soluble VHH in periplasmic extract; also called clone nr) VHH: QVQLVESGGGLVQAGGSLRLSCAASGRADSNAIMAWFRQAPGKEREFIVAVTYSGMPTYQDDSVQGRFTASRDNAKNTVYLQMNSLKPEDTAVYYCAARMYSASTYYGDYDYWGQGTQVTVSS | 1.25 | 0.000716
26 | FJ1427 P035MP03C10 (VHH, soluble VHH in periplasmic extract; also called clone nr) VHH: QVQLVESGGGLVQAGGSLRLSCAASGRTFSTTEMGWFRQAPGKEREFVAAITWTGRGTMYAESVEGRFTISRENAKNMVYLQMNSLKPEDTAIYYCAAARRGRAAVRSEGGYDFWGQGTQVTVSS | 0.596 | 0.000439
27 | FJ1427_P035MP02H11 (VHH, soluble VHH in periplasmic extract; also called clone nr) VHH: EVQLVESGGGLVQAGGSLRLSCAASGRTFSTTEMGWFRQAPGKEREFVAAITWTGRGTMYAESVEGRFTISRENAKNMVYLQMNSLKPEDTAIYYCAAARRGRAAVRSEGGYDFWGQGTQVAVSS | 0.795 | 0.000773
28 | FJ1427 P035MP02A12 (VHH, soluble VHH in periplasmic extract; also called clone nr) VHH: QVQLQESGGGLVQAGGSLRLSCAVSGRSFRNYVMGWFRQAPGREREIVAGITQFTSTTYYDDSVKGRFTISRDNAKNTVYLQMNSLKPEDTALYYCAADRSIKMTADWAYWGQGTQVTVSS | 0.182 | 0.00451
